{
  "source": "paper PMC5154190",
  "about": "“HBV maintains electrostatic homeostasis by modulating negative charges from phosphoserine and encapsidated nucleic acids” (Scientific Reports, 2016)",
  "data": [
    {"biological_target": "the molecule itself", "experiment": "native gel or EMSA", "values": [
      {"protein": "HBc mutant S3A, expressed in HuH-7 cells (natural protein) MDIDPYKEFGATVELLSFLPSDFFPSVRDLLDTASALYREALESPEHCSPHHTALRQAILCWGELMTLATWVGVNLEDPASRDLVVSYVNTNMGLKFRQLLWFHISCLTFGRETVIEYLVSFGVWIRTPPAYRPPNAPILSTLPETTVVRRRGRAPRRRTPAPRRRRSQAPRRRRSQSRESQC", "binding result": "binds"},
      {"protein": "HBc mutant S7D, expressed in HuH-7 cells (natural protein) MDIDPYKEFGATVELLSFLPSDFFPSVRDLLDTASALYREALESPEHCSPHHTALRQAILCWGELMTLATWVGVNLEDPASRDLVVSYVNTNMGLKFRQLLWFHISCLTFGRETVIEYLVSFGVWIRTPPAYRPPNAPILSTLPETTVVRRRGRDPRRRTPDPRRRRDQDPRRRRDQDREDQC", "binding result": "binds"},
      {"protein": "HBc mutant S3D, expressed in HuH-7 cells (natural protein) MDIDPYKEFGATVELLSFLPSDFFPSVRDLLDTASALYREALESPEHCSPHHTALRQAILCWGELMTLATWVGVNLEDPASRDLVVSYVNTNMGLKFRQLLWFHISCLTFGRETVIEYLVSFGVWIRTPPAYRPPNAPILSTLPETTVVRRRGRDPRRRTPDPRRRRSQDPRRRRSQSRESQC", "binding result": "binds"},
      {"protein": "HBc mutant S7D, E. coli-expressed (natural protein) MDIDPYKEFGATVELLSFLPSDFFPSVRDLLDTASALYREALESPEHCSPHHTALRQAILCWGELMTLATWVGVNLEDPASRDLVVSYVNTNMGLKFRQLLWFHISCLTFGRETVIEYLVSFGVWIRTPPAYRPPNAPILSTLPETTVVRRRGRDPRRRTPDPRRRRDQDPRRRRDQDREDQC", "binding result": "binds"},
      {"protein": "HBc mutant S7A, expressed in HuH-7 cells (natural protein) MDIDPYKEFGATVELLSFLPSDFFPSVRDLLDTASALYREALESPEHCSPHHTALRQAILCWGELMTLATWVGVNLEDPASRDLVVSYVNTNMGLKFRQLLWFHISCLTFGRETVIEYLVSFGVWIRTPPAYRPPNAPILSTLPETTVVRRRGRAPRRRTPAPRRRRAQAPRRRRAQAREAQC", "binding result": "binds"},
      {"protein": "HBc mutant S3D, E. coli-expressed (natural protein) MDIDPYKEFGATVELLSFLPSDFFPSVRDLLDTASALYREALESPEHCSPHHTALRQAILCWGELMTLATWVGVNLEDPASRDLVVSYVNTNMGLKFRQLLWFHISCLTFGRETVIEYLVSFGVWIRTPPAYRPPNAPILSTLPETTVVRRRGRDPRRRTPDPRRRRSQDPRRRRSQSRESQC", "binding result": "binds"}
    ]}
  ]
}
